These are literature values, as cited in paper PMC10606834, “Is the Neuropeptide PEN a Ligand of GPR83?” (International Journal of Molecular Sciences, 2023).

Data set [1] relates to GPR83. From the text:
G protein-coupled receptor 83 (GPR83), also termed glucocorticoid-induced receptor (GIR), GPR72, KIAA1540, or JP05, is a class A G protein-coupled receptor with predominant expression in the […] and proposed function in the regulation of food intake and in anxiety-like behavior [1, 2, 3]. […] A potential role of GPR83 in regulatory T cell development and function has not been confirmed. […] The present study was initiated to evaluate PEN as a ligand of GPR83. […] While one end of the peptide may be crucial for binding the receptor, an absolute requirement of both peptide termini to be free of another ...

In data set [2] the test system is GPR83 (murine Att20 and STC-1 cells). The settings on record: pilot screen of peptide hormone library, ref [14]. The source says:
While the earlier study employed CHO cells from Cricetulus griseus and Neuro2A cells from Mus musculus overexpressing human GPR83 [10], this study used human HEK293 and U2OS c ...

B1: FAM237A: 9 kDa protein, termed family with sequence similarity 237 member A (protein, UniProt A0A1B0GTK4 34-181, looked up)
Protein FAM237A: HSQTDLLALSQADPQCWESSSVLLLEMWKPRVSNTVSGFWDFMIYLKSSENLKHGALFWDLAQLFWDIYVDCVLSRNHGLGRRQLVGEEEKISAAQPQHTRSKQGTYSQLLRTSFLKKKELIEDLISMHVRRSGSSVIGKVNLEIKRK
For B1, the “GPR83 ligand and agonist” value in data set [1] (comparative evaluation, multiple assay systems, ref [16]) is “only FAM237A was confirmed as a GPR83 ligand and agonist”. In addition, the “interaction with GPR83” value in data set [1] (multiple luminescence-based interaction and activation assays, ref [16]) is on record as “confirmed the interaction of FAM237A”. Moreover, in data set [1] (peptide hormone library screening study, ref [14]), the “activation of GPR83” value is “activate GPR83”. Also, the “GPR83-mediated β-arrestin recruitment” value in data set [2] is “activator of GPR83-mediated β-arrestin recruitment”.
